Measured values as given in doi:10.1101/2023.01.23.525122 (bioRxiv, 2023).

B1: NPM1(7–117) (domain or fragment, UniProt P06748 7-117, looked up)
chain: MDMSPLRPQNYLFGCELKADKDYHFKVDNDENEHQLSLRTVSLGAGAKDELHIVEAEAMNYEGSPIKVTLATLKMSVQPTVSLGGFEITPPVVLRLKCGSGPVHISGQHLV
B2: NPM1(7–117)-K32A (domain or fragment, UniProt P06748 7-117, looked up)
chain: MDMSPLRPQNYLFGCELKADKDYHFAVDNDENEHQLSLRTVSLGAGAKDELHIVEAEAMNYEGSPIKVTLATLKMSVQPTVSLGGFEITPPVVLRLKCGSGPVHISGQHLV
B3: NPM1(7–117)-Y67H (domain or fragment, UniProt P06748 7-117, looked up)
chain: MDMSPLRPQNYLFGCELKADKDYHFKVDNDENEHQLSLRTVSLGAGAKDELHIVEAEAMNHEGSPIKVTLATLKMSVQPTVSLGGFEITPPVVLRLKCGSGPVHISGQHLV
B4: NPM1(7–117)-Y67F (domain or fragment, UniProt P06748 7-117, looked up)
chain: MDMSPLRPQNYLFGCELKADKDYHFKVDNDENEHQLSLRTVSLGAGAKDELHIVEAEAMNFEGSPIKVTLATLKMSVQPTVSLGGFEITPPVVLRLKCGSGPVHISGQHLV
B5: NPM1(1–160) (domain or fragment, UniProt P06748 1-160, looked up)
chain: MEDSMDMDMSPLRPQNYLFGCELKADKDYHFKVDNDENEHQLSLRTVSLGAGAKDELHIVEAEAMNYEGSPIKVTLATLKMSVQPTVSLGGFEITPPVVLRLKCGSGPVHISGQHLVAVEEDAESEDEEEEDVKLLSISGKRSAPGGGSKVPQKKVKLAA
B6: NPM1(1–117) (domain or fragment, UniProt P06748 1-117, looked up)
chain: MEDSMDMDMSPLRPQNYLFGCELKADKDYHFKVDNDENEHQLSLRTVSLGAGAKDELHIVEAEAMNYEGSPIKVTLATLKMSVQPTVSLGGFEITPPVVLRLKCGSGPVHISGQHLV
B7: NPM1(1–150) (domain or fragment, UniProt P06748 1-150, looked up)
chain: MEDSMDMDMSPLRPQNYLFGCELKADKDYHFKVDNDENEHQLSLRTVSLGAGAKDELHIVEAEAMNYEGSPIKVTLATLKMSVQPTVSLGGFEITPPVVLRLKCGSGPVHISGQHLVAVEEDAESEDEEEEDVKLLSISGKRSAPGGGSK
B8: NPM1(1–140) (domain or fragment, UniProt P06748 1-140, looked up)
chain: MEDSMDMDMSPLRPQNYLFGCELKADKDYHFKVDNDENEHQLSLRTVSLGAGAKDELHIVEAEAMNYEGSPIKVTLATLKMSVQPTVSLGGFEITPPVVLRLKCGSGPVHISGQHLVAVEEDAESEDEEEEDVKLLSISG
B9: NPM1(1–130) (domain or fragment, UniProt P06748 1-130, looked up)
chain: MEDSMDMDMSPLRPQNYLFGCELKADKDYHFKVDNDENEHQLSLRTVSLGAGAKDELHIVEAEAMNYEGSPIKVTLATLKMSVQPTVSLGGFEITPPVVLRLKCGSGPVHISGQHLVAVEEDAESEDEEE
B10: NPM1(1–188) (domain or fragment, UniProt P06748 1-188, looked up)
chain: MEDSMDMDMSPLRPQNYLFGCELKADKDYHFKVDNDENEHQLSLRTVSLGAGAKDELHIVEAEAMNYEGSPIKVTLATLKMSVQPTVSLGGFEITPPVVLRLKCGSGPVHISGQHLVAVEEDAESEDEEEEDVKLLSISGKRSAPGGGSKVPQKKVKLAADEDDDDDDEEDDDEDDDDDDFDDEEAEE
B11: NPM1-236A (natural protein, UniProt P06748 1-294, looked up)
chain: MAASMAMDMSPLRPQNYLFGCELKADKDYHFKVDNDENEHQLSLRTVSLGAGAKDELHIVEAEAMNYEGSPIKVTLATLKMSVQPTVSLGGFEITPPVVLRLKCGSGPVHISGQHLVAVEEDAESEDEEEEDVKLLSISGKRSAPGGGSKVPQKKVKLAADEDDDDDDEEDDDEDDDDDDFDDEEAEEKAPVKKSIRDTPAKNAQKSNQNGKDSKPSSTPRSKGQESFKKQEKTPKTPKGPSSVEDIKAKMQASIEKGGSLPKVEAKFINYVKNCFRMTDQEAIQDLWQWRKSL
B12: NPM1-234567A (natural protein, UniProt P06748 1-294, looked up)
chain: MAAAAAADMSPLRPQNYLFGCELKADKDYHFKVDNDENEHQLSLRTVSLGAGAKDELHIVEAEAMNYEGSPIKVTLATLKMSVQPTVSLGGFEITPPVVLRLKCGSGPVHISGQHLVAVEEDAESEDEEEEDVKLLSISGKRSAPGGGSKVPQKKVKLAADEDDDDDDEEDDDEDDDDDDFDDEEAEEKAPVKKSIRDTPAKNAQKSNQNGKDSKPSSTPRSKGQESFKKQEKTPKTPKGPSSVEDIKAKMQASIEKGGSLPKVEAKFINYVKNCFRMTDQEAIQDLWQWRKSL
B13: NPM1-T4sD (natural protein, UniProt P06748 1-294, looked up)
chain: MEDSMDMDMSPLRPQNYLFGCELKADKDYHFKVDNDENEHQLSLRTVSLGAGAKDELHIVEAEAMNYEGSPIKVTLATLKMSVQPTVSLGGFEITPPVVLRLKCGSGPVHISGQHLVAVEEDAESEDEEEEDVKLLSISGKRSAPGGGSKVPQKKVKLAADEDDDDDDEEDDDEDDDDDDFDDEEAEEKAPVKKSIRDDPAKNAQKSNQNGKDSKPSSDPRSKGQESFKKQEKDPKDPKGPSSVEDIKAKMQASIEKGGSLPKVEAKFINYVKNCFRMTDQEAIQDLWQWRKSL

Target: the molecule itself
Assay: SDS-resistant oligomer detection by SDS-PAGE

Binding result, binds:
B1, B2, B3, B4

Target: the molecule itself
Assay: SDS-resistant oligomer detection by SDS-PAGE
Remark: another data set of the same source

Binding result, binds:
B5, B6, B7, B8, B9, B10

Target: the molecule itself
Assay: SDS-resistant oligomer detection by SDS-PAGE
Remark: another data set of the same source

Binding result, binds:
B11, B12

Target: the molecule itself
Assay: SDS-resistant oligomer detection by SDS-PAGE
Remark: another data set of the same source

Binding result, binds:
B13
